Measurements published in PMC6197226, “ZZ-dependent regulation of p62/SQSTM1 in autophagy” (Nature Communications, 2018).

Target: T1, p62 ZZ domain (aa 115-190) (human, UniProt Q13501 115-190)
T1 construct: p62/SQSTM1 ZZ domain, human, aa 115-190; uniformly 15N-labeled for NMR; unlabeled for MST; also called p62_(ZZ (115-190)); source: E. coli BL21 (DE3) RIL, purified (glutathione Sepharose, size exclusion)
Assay: MST; displacement assay: unlabeled peptide added to a preformed complex of 40 uM ZZ (aa 115-190) and 80 nM FAM-labeled peptide; Ki from IC50, called Kd in the text; 10 mM HEPES pH 7.4, 150 mM NaCl, 1 mM TCEP; triplicates
Conditions: both partners purified

Kd: 320 µM
B1: K100EKKECRRDHR110 (p62_(100-110)) peptide (peptide)
peptide: KEKKECRRDHR
notes: p62/SQSTM1 regulatory linker between PB1 and ZZ, aa 100-110; also called RL peptide; RL; source: synthetic peptide (SynPeptide or KE BioChem)
